Results on 5 molecules are retold here after patent US20230348616A1 (MIE UNIVERSITY, published 2023).

Where a chain is given by its changes, count along the chain named.

In test [1] the target is HLA-A2/NY-ESO peptide complex presented on cells (human). Briefly: cell-based or functional assay.
Test [2] shares this target. Briefly: cell-based or functional assay. This is another data set of the same source.
Test [3] has as its target T1, HLA-A*0201/β2-microglobulin/NY-ESO peptide complex (human, biotinylated with E. coli biotin ligase at the added recognition sequence (biotinylated form used in the ELISA)).
T1 construct: also called HLA/NY-ESO; HLA-A2/NY-ESO
Kind of test: SPR (Biacore T200), bispecific captured by anti-human IgG (Fc) antibody, HLA/NY-ESO as analyte, single cycle kinetics. On the technique in general: In SPR one partner is held on a chip, and binding of the other changes the refractive index at the surface.
Procedure: With the use of Biacore T200, various Fc-conjugated anti-HLA/NY-ESO-anti-CD3 bispecific molecules were captured as ligands to the immobilized anti-human IgG (Fc) antibody, and the antigen was assayed as an analyte. […] The anti-human IgG (Fc) antibody (Human antibody Capture kit, GE Healthcare) was immobilized on Sensor Chip CM5 (GE Healthcare) in accordance with the instructions of the kit. The Fc-conjugated anti-HLA/NY-ESO-anti-CD3 bispecific molecules diluted to 0.5 g/ml in HBS-EP+(GE Healthcare) to be evaluated were brought into contact therewith at 10 μl/min for 60 seconds for immobilization. Thereafter, the samples were added to the HLA/NY-ESO analytes diluted to various levels with HBS-EP+ at a flow rate of 30 μl/min for 120 seconds and dissociation was assayed for 600 seconds.

In test [4] the target is T2, 1F (human).
T2 construct: cell surface; also called HLA-A2 / point-mutant NY-ESO peptide 1F complex on CD3e knockout T2 cells
Kind of test: flow cytometry, CD3e knockout T2 cells pulsed with 50 µM peptide, antibody at 100 nM, PE anti-human IgG; gMFI standardized to the HLA/peptide amount; DMSO-only cells 1.15.
Procedure: (§1) The cells were washed 2 times in PBS containing 5% FBS, PE conjugated F(ab′)2 Fragment Anti-Human IgG (Jackson Immuno Research Laboratories) diluted with PBS containing 5% FBS was added at 25 μl/well, and the resultant was allowed to stand at 4° C. for 30 minutes. The cells were washed 2 times in PBS containing 5% FBS, immobilized with Mildform 10 N (FUJIFILM Wako Pure Chemical Corporation) overnight, and resuspended in PBS containing 5% FBS. […] The cells were washed 2 times in PBS containing 5% FBS, immobilized with Mildform 10 N (FUJIFILM Wako Pure Chemical Corporation) overnight, and resuspended in PBS containing 5% FBS. The cell suspensions were subjected to detection using a flow cytometer (CantoII, Becton Dickinson). […] The standardized gMFI indicating the binding affinity of each Fc-conjugated anti-HLA-A2/NY-ESO-anti-CD3 bispecific molecule standardized with the amount of the HLA/peptide complex on the CD3e knockout T2 cells was determined in accordance with the following equation.

Test [5] has as its target T3, gp100 (human).
T3 construct: cell surface; unrelated control peptide; also called HLA-A2 / gp100 peptide complex on CD3e knockout T2 cells
The test is described as above.
Procedure: as §1

Test [6] has as its target T4, HLA-A2/NY-ESO peptide complex presented on cells (human).
T4 construct: whole, on cells; also called HLA/NY-ESO; T2 cells supplemented with the NY-ESO peptide
The description is as above.
Procedure: as §1

The target in test [7] is T3, gp100. Briefly: flow cytometry, CD3e knockout T2 cells pulsed with 50 µM peptide, antibody at 100 nM, PE anti-human IgG; gMFI standardized to the HLA/peptide amount; DMSO-only cells 1.19. In general terms: A flow cytometer gives signals particle by particle.
Source text: (§2) The cells were washed 2 times in PBS containing 5% FBS, immobilized with Mildform 10 N (FUJIFILM Wako Pure Chemical Corporation) overnight, and resuspended in PBS containing 5% FBS. The cell suspensions were subjected to detection using a flow cytometer (CantoII, Becton Dickinson). […] The standardized gMFI indicating the binding affinity of each Fc-conjugated anti-HLA-A2/NY-ESO-anti-CD3 bispecific molecule standardized with the amount of the HLA/peptide complex on the CD3e knockout T2 cells was determined in accordance with the following equation.
(§3) The standardized gMFI indicating the binding affinity of each Fc-conjugated anti-HLA-A2/NY-ESO-anti-CD3 bispecific molecule standardized with the amount of the HLA/peptide complex on the CD3e knockout T2 cells was determined in accordance with the following equation.
The target in test [8] is T4, HLA-A2/NY-ESO peptide complex presented …. Described as above.
Source text: as §2, §3
The target in test [9] is T5, HLA-A2 / homologous peptide DOLPP1 complex on T2 cells (human).
T5 construct: whole, on cells; also called T2 cells supplemented with homologous peptide DOLPP1
The test is described as above.
Source text: as §2, §3

Test [10] addresses T6, HLA-A2 / homologous peptide IL20RB complex on T2 cells (human).
T6 construct: whole, on cells; also called T2 cells supplemented with homologous peptide IL20RB
The description is as above.
Source text: as §2, §3

The target of test [11] is T7, HLA-A2 / homologous peptide PRKD2 complex on T2 cells (human).
T7 construct: whole, on cells; also called T2 cells supplemented with homologous peptide PRKD2
The description is as above.
Source text: as §2, §3

The target of test [12] is T8, HLA-A2 / homologous peptide CD163 complex on T2 cells (human).
T8 construct: whole, on cells; also called T2 cells supplemented with homologous peptide CD163
The test is described as above.
Source text: as §2, §3

Test [13] addresses T9, HLA-A2 / homologous peptide P2RY8 complex on T2 cells (human).
T9 construct: whole, on cells; also called T2 cells supplemented with homologous peptide P2RY8
Described as above.
Source text: as §2, §3

Test [14] has as its target T1, HLA-A*0201/β2-microglobulin/NY-ESO …. Kind of test: SPR (Biacore T200), scFv captured by anti-His antibody, HLA/NY-ESO as analyte, single cycle kinetics.
Procedure: With the use of Biacore T200, the anti-HLA/NY-ESO scFv was captured as a ligand to the immobilized anti-His antibody, and the antigen was assayed as an analyte. As the antigen, HLA/NY-ESO prepared in 1)-1 was used. The anti-His antibody (His Capture kit, Cytiva) was immobilized on Sensor Chip CM5 (Cytiva) in accordance with the instructions of the kit. The anti-HLA/NY-ESO scFv constructs diluted to 0.5 μg/ml in HBS-EP+(Cytiva) to be evaluated were brought into contact therewith at 10 μl/min for 60 seconds for immobilization. Thereafter, the samples were added to the HLA/NY-ESO analytes diluted to various levels with HBS-EP+ at a flow rate of 30 μl/min for 120 seconds and dissociation was assayed for 600 seconds.
For test [15], the target named is T5, HLA-A2 / homologous peptide DOLPP1 …. Briefly: flow cytometry, peptide-pulsed T2 cells.
Test [16] concerns the target T6, HLA-A2 / homologous peptide IL20RB …. Briefly: flow cytometry, peptide-pulsed T2 cells.
The target of test [17] is T7, HLA-A2 / homologous peptide PRKD2 …. Kind of test: flow cytometry, peptide-pulsed T2 cells.
In test [18] the target is T8, HLA-A2 / homologous peptide CD163 …. Kind of test: flow cytometry, peptide-pulsed T2 cells.
Test [19] has as its target T9, HLA-A2 / homologous peptide P2RY8 …. Kind of test: flow cytometry, peptide-pulsed T2 cells.
Test [20] deals with T10, gp100 (human).
T10 construct: cell surface;cell surface complex; also called HLA-A2 / gp100 peptide complex on T2 cells
Briefly: flow cytometry on peptide-pulsed T2 cells, scFv 100 nM.
Procedure: (§4) The resultant was washed two times in the AIM-V medium containing 20% FBS, the concentration thereof was adjusted to an adequate level with PBS containing 5% FBS, the LIVE/DEAD Fixable Dead Cell Stain Kit (Thermo Fisher Scientific) was added thereto, and the resultant was allowed to stand at 4° C. for 30 minutes. The cells were washed 2 times in PBS containing 5% FBS, the washed cells were divided into two groups, the cells in PBS containing 5% FBS were seeded on a 96-well U-bottom microplate at 10⁵ cells/well, and the plate was subjected to centrifugation, followed by removal of the supernatant. Anti-HLA/NY-ESO scFv diluted to 100 nM with PBS containing 5% FBS was added at 25 μl/well to one of the divided cells, and the resultant was allowed to stand at 4° C. for 30 minutes. The cells were washed 2 times in PBS containing 5% FBS, Penta-His Alexa Fluor488 (QIAGEN) diluted in PBS containing 5% FBS was added at 25 μl/well, and the resultant was allowed to stand at 4° C. for 30 minutes. The cells were washed 2 times in PBS containing 5% FBS, Anti-mouse-IgG Alexa Fluor488 (Thermo Fisher Scientific) diluted in PBS containing 5% FBS was added at 25 μl/well, and the resultant was allowed to stand at 4° C. for 30 minutes. The cells were washed 2 times in PBS containing 5% FBS, immobilized with Mildform 10 N (FUJIFILM Wako Pure Chemical Corporation) overnight, and resuspended in PBS containing 5% FBS. […] The cells were washed 2 times in PBS containing 5% FBS, immobilized with Mildform 10 N (FUJIFILM Wako Pure Chemical Corporation) overnight, and resuspended in PBS containing 5% FBS. The cell suspensions were subjected to detection using a flow cytometer (CantoII, Becton Dickinson). […] The standardized gMFI indicating the binding affinity of each scFv standardized with the amount of the HLA/peptide complex on the T2 cells was determined in accordance with the following equation.

Test [21] concerns the target T4, HLA-A2/NY-ESO peptide complex presented …. Described as above.
Procedure: as §4
Test [22] deals with T10, gp100. The description is as above. This is another data set of the same source.
Procedure: (§5) The cells were washed 2 times in PBS containing 5% FBS, immobilized with Mildform 10 N (FUJIFILM Wako Pure Chemical Corporation) overnight, and resuspended in PBS containing 5% FBS. The cell suspensions were subjected to detection using a flow cytometer (CantoII, Becton Dickinson). […] The standardized gMFI indicating the binding affinity of each scFv standardized with the amount of the HLA/peptide complex on the T2 cells was determined in accordance with the following equation.
(§6) The 9-mer peptide shown in FIG. 2A was selected as a homologous peptide for evaluation of binding specificity of anti-HLA/NY-ESO scFv. […] The standardized gMFI indicating the binding affinity of each scFv standardized with the amount of the HLA/peptide complex on the T2 cells was determined in accordance with the following equation.
Test [23] has as its target T4, HLA-A2/NY-ESO peptide complex presented …. The test is described as above. This is another data set of the same source.
Procedure: as §5, §6
The target of test [24] is T5, HLA-A2 / homologous peptide DOLPP1 …. The test is described as above.
Procedure: as §5, §6
In test [25] the target is T6, HLA-A2 / homologous peptide IL20RB …. Described as above.
Procedure: as §5, §6
Test [26] has as its target T7, HLA-A2 / homologous peptide PRKD2 …. The description is as above.
Procedure: as §5, §6
Test [27] addresses T8, HLA-A2 / homologous peptide CD163 …. The description is as above.
Procedure: as §5, §6
The target in test [28] is T9, HLA-A2 / homologous peptide P2RY8 …. The test is described as above.
Procedure: as §5, §6
Test [29] concerns the target T1, HLA-A*0201/β2-microglobulin/NY-ESO …. Kind of test: SPR (Biacore T200), scFv captured by anti-His antibody, HLA/NY-ESO as analyte, single cycle kinetics. The source holds these as a separate data set.
Procedure: With the use of Biacore T200, anti-HLA/NY-ESO scFv was captured as a ligand by the immobilized anti-His antibody, and the antigen was assayed as an analyte. As the antigen, HLA/NY-ESO prepared in 1)-1 was used. The anti-His antibody (His Capture kit, GE Healthcare) was immobilized on Sensor Chip CM5 (GE Healthcare) in accordance with the instructions of the kit. The anti-HLA/NY-ESO scFv constructs diluted to 0.5 μg/ml in HBS-EP+ (GE Healthcare) to be evaluated were brought into contact therewith at 10 μl/min for 60 seconds for immobilization. Thereafter, the samples were added to the HLA/NY-ESO analytes diluted to various levels with HBS-EP+ at a flow rate of 30 μl/min for 120 seconds and dissociation was assayed for 600 seconds.
For test [30] the target is unchanged. Briefly: ELISA, biotinylated HLA/NY-ESO on NeutrAvidin, scFv from E. coli culture, anti-FLAG-HRP. In general terms: An ELISA detects its analyte on a solid surface through an enzyme-linked reagent.
Procedure: The plate was washed 3 times with ELISA buffer, blocked with Blocker Casein (Thermo Fisher Scientific), and then washed 3 times with ELISA buffer. Thereafter, a culture solution of scFv-expressing E. coli was added, and the reaction was allowed to proceed at room temperature for 2 hours. After the resultant was washed 3 times with ELISA buffer, 50 μl of the horseradish peroxidase (HRP)-labeled anti-FLAG antibody (Sigma-Aldrich) diluted to 5,000-fold with ELISA buffer was added, and the reaction was allowed to proceed at room temperature for 1 hour.

B1: NYZ-1010 (bispecific antibody, human IgG1, lambda, L234A L235A)
chain 1: not shown
chain 2: not shown
light: NFMLTQPSSVSGVPGQRVTISCTGNTGNIGSNYVNWYQQLPGTAPKLLIYRDDKRPSGVPDRFSGSKSGTSASLAITGFQAEDEADYYCQSYSSGFIFGGGTKLTVLGQPKAAPSVTLFPPSSEELQANKATLVCLISDFYPGAVTVAWKADSSPVKAGVETTTPSKQSNNKYAASSYLSLTPEQWKSHRSYSCQVTHEGSTVEKTVAPTECS
One may read the Kd as the free concentration of one partner at which half of the binding sites on the other are occupied at equilibrium, for simple one-to-one binding. Read a low Kd as tighter binding. On to B1, for which the “EC50 of cytotoxicity on U266B1 cells (51Cr release, human PBMC effectors)” value in [1] stood at 0.96 nM. Also, the “EC50 of cytotoxicity on NCI-H1703 cells (51Cr release, human PBMC effectors)” value in [2] was 2.56 nM. Moreover, the Kd in test [3] was 1.9 nM. Moreover, the “standardized gMFI” value in test [4] was found to be 0.86; in [5] it was 0.53; in test [6] it was 43.3; in [7], 0.54; in [8], 44.4; in test [9], 0.7. Also, the “standardized gMFI” value stood at 0.88 in [10], 0.54 in test [11], 0.67 in [12] and 0.95 in [13].

B2: NYC-0008 (scFv)
scFv: GEVQLVESGGGVVQPGGSLRLSCEASGFIFDDYAMHWVRQAPGKGLEWVSLISGDGDIIYYADSVKGRFTISRDNSKNSLYLQMNSLIIEDTALYYCAKDWVFGVVMTHYWYFGLDVWGQGTTVTVSSGGGGSGGGGSGGGGSDIQMTQSPSSLSASEGDRVTITCRASQSISTYLNWYQQKPGKAPKLLIYGASSLQSGVPSRFSGSGSGTDFTLTISSLQPEDFATYYCQQSYSTPPITFGQGTKVEIKGAAAGAGGDYKDDDDKGAAAHHHHHH
notes: Captured by anti-His antibody in SPR; also called scFv of mAb28105P
Consider B2, for which the Kd in test [14] was 7.9 nM.

B3: NYA-2061 (scFv)
scFv: GEVQLVESGGGLVQPGGSLRLSCAASGFSIRSYDIHWVRQAPGKGLEWVATISYDGSQKYYADSVKGRFTISRDESKNTLYLQMNSLRAEDTAVYHCARGSSGHYEAFDIWGQGTLVTVSSGGGGSGGGGSGGGGSQSVLTQPPSASGTPGQRVTISCSGSSSNIGNWYVSWYQQLPGTAPKLLIYDNNKRPSGVPDRFSGSKSGTSASLAISGLQSEDEADYYCGTWDSSLSAPWVFGGGTKLTVLGAAAGAGGDYKDDDDKGAAAHHHHHH
notes: also called NYA-2061 tag adduct
As to B3, the binding result in [15], in [16], in test [17], in test [18] and in test [19] was “no binding (tested: 100 nM)” each time. Moreover, the “standardized gMFI” value amounted to 0.4 in test [20]; 8.62 in [21]; 0.32 in test [22]; 10.4 in test [23]; 0.4 in [24]; 0.46 in test [25]. Moreover, the “standardized gMFI” value in test [26] amounted to 0.33; in [27] it was 0.48; in test [28], 0.57. The molecule also came in with a dissociation constant Kd in test [29] of 1.5 nM.

B4: NYA-2048 (scFv)
scFv: B3 scFv with E2Q, L12V, G17R, I35M, E75N, N85S
notes: also called NYA-2048 tag adduct
With B4, the binding result in test [15], in test [16], in test [17], in test [18] and in test [19] was “no binding (tested: 100 nM)” each time. The “standardized gMFI” value in [20] amounted to 0.41; in test [21] it was 6.58; in [22], 0.34; in test [23] it was 8.82; in test [24], 0.44; in [25], 0.48. Further, the results for the “standardized gMFI” value in test [26], in test [27] and in [28] were 0.35, 0.52 and 0.69, respectively. The same molecule came in with a Kd in [29] of 6.3 nM.

B5: NY-R119 (scFv)
scFv: EVQLVESGGGVVQPGRSLTPSCSASGFSIRSYDIHWVRQAPGKGLEWVATISYDGSQKYFADSVKGRFTIFRDESENMVYLQMSGLRVEDTAVYHCARGSSGHYEAFDIWGQGTMVTVSSGGGGSGGGGSGGGGSQSVLTQPPSVSAAPGQKVTISCSGSSSNIGNNYVSWYQQLPGTAPKLLIYDNNKRPSGIPDRFSGSKSGTSATLGITGLQTGDEADYYCGTWDSSLSAPWVFGGGTKVTVL
notes: Expressed in E. coli, culture solution used in the ELISA; also called ELISA-positive clone NY-R119; not shown: FLAG tag and His tag at the carboxyl terminus from the E. coli expression vector
As to B5, the binding result in [30] is “binds”.
